Laboratory results from article PMC7615550, “Structural mechanism of outer kinetochore Dam1:Ndc80 complex assembly on microtubules” (Science (New York, N.Y.), 2023).
Values belong to the molecule of their own block, whether it stands above or below them.

B1: Ask1 subunit of the Dam1 complex (natural protein, S. cerevisiae)
chain: MDSASKEETLEKLDQEITVNLQKIDSNLSFCFHKITQDIIPHVATYSEICERIMDSTEWLGTMFQETGLVNLQANAAAPVGNAPVKSLVSNNVGIFPTSAEEASRQSQTDNGPNEADSAVHVNRDVHSMFNNDSIDDFHTANITSTGQILKLPDSSDEDTGSEAVPSREQTDLTGEGHGGADDEQDESTIQRQSRKRKISLLLQQQYGSSSSMVPSPIVPNKMRKQLAHEEHINNDGDNDDENSNNIESSPLKQGHHHPKGQADDNNEGPDEEESTKEVPKPGTIIHFSTNR
notes: Ask1, S. cerevisiae, as a subunit of the reconstituted Dam1 complex; Stood in the assay inside the whole Dam1c; also called Ask1^B; source: purified as part of Dam1c
B2: Dad1 subunit of the Dam1 complex (natural protein, S. cerevisiae)
chain: MMASTSNDEEKLISTTDKYFIEQRNIVLQEINETMNSILNGLNGLNISLESSIAVGREFQSVSDLWKTLYDGLESLSDEAPIDEQPTLSQSKTK
notes: Dad1, S. cerevisiae, as a subunit of the reconstituted Dam1 complex; Stood in the assay inside the whole Dam1c; also called Dad1^A; source: purified as part of Dam1c
B3: Dam1 subunit of the Dam1 complex (natural protein, S. cerevisiae)
chain: MSEDKAKLGTTRSATEYRLSIGSAPTSRRSSMGESSSLMKFADQEGLTSSVGEYNENTIQQLLLPKIRELSDSIITLDSNFTRLNFIHESLADLNESLGSLLYGIMSNSWCVEFSQAPHDIQDDLIAIKQLKSLEDEKNNLVMELSNMERGIKRKKDEQGENDLAKASQNKQFNQPLFPSSQVRKYRSYDNRDKRKPSKIGNNLQVENEEDYEDDTSSEASFVLNPTNIGMSKSSQGHVTKTTRLNNNTNSKLRRKSILHTIRNSIASGADLPIENDNVVNLGDLHPNNRISLGSGAARVVNGPVTKNRNSMFSGRAERKPTESRHSVAKKTEKKINTRPPFR
notes: Dam1, S. cerevisiae, as a subunit of the reconstituted Dam1 complex; Stood in the assay inside the whole Dam1c; also called Dam1^Staple (residues 1-26); Dam1^C-ter; source: purified as part of Dam1c
B4: Dad4 subunit of the Dam1 complex (natural protein, S. cerevisiae)
chain: MENPHEQVQANILSRIIGNVKRLNESVAILNQELVTINNRNKNLEIMGAICDNYHSSVQFNLEATNNKKPPL
notes: Dad4, S. cerevisiae, as a subunit of the reconstituted Dam1 complex; Stood in the assay inside the whole Dam1c; also called Dad4^B; source: purified as part of Dam1c
B5: Spc19 subunit of the Dam1 complex (natural protein, S. cerevisiae)
chain: MTDALEQSVLALEGTVSVLKDSVESLKCANEPSTNLASTMLQTKRVFRLVPEYDVERSKLDLIEEVEPLVRTLGDKLRKSMGRMQRELDTLQQTYELNDLRLKKNISMDDDDALNSPDMGQEYEGRDADDVVMMASSTNEELEELKKLKEKKKQLENKLEILKQK
notes: Spc19, S. cerevisiae, as a subunit of the reconstituted Dam1 complex; Stood in the assay inside the whole Dam1c; source: purified as part of Dam1c
B6: Spc34 subunit of the Dam1 complex (natural protein, S. cerevisiae)
chain: MGESLDRCIDDINRAVDSMSTLYFKPPGIFHNAILQGASNKASIRKDITRLIKDCNHDEAYLLFKVNPEKQSVSRRDGKEGVFDYVIKRDTDMKRNRRLGRPGEKPIIHVPKEVYLNKDRLDLNNKRRRTATTSGGGLNGFIFDTDLIGSSVISNSSSGTFKALSAVFKDDPQIQRLLYALENGSVLMEEESNNQRRKTIFVEDFPTDLILKVMAEVTDLWPLTEFKQDYDQLYHNYEQLSSKLRFIKKEVLLQDDRLKTMSQYHPSSSHDVAKIIRKEKDEIRRLEMEIANLQE
notes: Spc34, S. cerevisiae, as a subunit of the reconstituted Dam1 complex; Stood in the assay inside the whole Dam1c; source: purified as part of Dam1c

Key:
[1] = target: Ndc80 complex (heterotetramer of Ndc80, Nuf2, Spc24 and Spc25, S. cerevisiae), wild type (S. cerevisiae) (UniProt P40460)
[2] = target: Dam1 complex (ten-subunit, S. cerevisiae), wild type, P53267;Q12248;P35734;P69851;P36131;Q03954; assay: optical trap force-rupture assay; details: Ndc80c + Dam1c on microtubules; N=154 (parent N=150); parent: 10.4
[3] = target: microtubules (α/β-tubulin) (UniProt P02554); assay: optical trap force-rupture assay; details: Ndc80c alone (no Dam1c) on microtubules; N=81 (parent N=119); parent: 5.4
[4] = target: Dam1 complex (ten-subunit, S. cerevisiae), wild type (S. cerevisiae) (UniProt P53267); assay: cryo-EM structure; outer kinetochore Dam1c:Ndc80c:microtubule complexes assembled on cryo-EM grids by step-wise addition of taxol-stabilized microtubules, Ndc80c, and Dam1c
[5] = target: microtubules (α/β-tubulin) (UniProt P02554); assay: optical trap force-rupture assay; rupture of outer kinetochore - microtubule attachments; each event is the maximum trap force before rupturing; medians; Ndc80c alone
[6] = target: B3; assay: cryo-EM structure; outer kinetochore Dam1c:Ndc80c:microtubule complexes assembled on cryo-EM grids by step-wise addition of taxol-stabilized microtubules, Ndc80c, and Dam1c; details: both partners purified
[7] = target: T1, Ndc80 complex (heterotetramer of Ndc80, Nuf2, Spc24 and Spc25, S. cerevisiae), wild type (S. cerevisiae, UniProt P40460 1-691; P33895 1-451; Q04477 1-213; P40014 1-221); assay: as above; details: both partners purified
T1 construct: Ndc80 subunit of the S. cerevisiae Ndc80 complex; Nuf2 subunit of the S. cerevisiae Ndc80 complex; Spc24 subunit of the S. cerevisiae Ndc80 complex (no cryo-EM density visible); Spc25 subunit of the S. cerevisiae Ndc80 complex (no cryo-EM density visible); also called Ndc80c^CH; Ndc80^CC:Nuf2^CC; source: purified; copies: + + +

[8] = target: T2, Ndc80 subunit of the Ndc80 complex (S. cerevisiae, UniProt P40460 1-691); assay: as above; details: both partners purified
T2 construct: Ndc80, S. cerevisiae, as a subunit of the reconstituted Ndc80 complex; Stood in the assay inside the whole Ndc80c; also called Ndc80^CH; Ndc80^CC; source: purified as part of Ndc80c

[9] = target: B6; assay: as above; details: both partners purified

Chain of Ndc80 complex (heterotetramer of Ndc80, Nuf2, Spc24 and Spc25, S. cerevisiae), wild type (S. cerevisiae) (P40460 whole entry, chain 1 of 4): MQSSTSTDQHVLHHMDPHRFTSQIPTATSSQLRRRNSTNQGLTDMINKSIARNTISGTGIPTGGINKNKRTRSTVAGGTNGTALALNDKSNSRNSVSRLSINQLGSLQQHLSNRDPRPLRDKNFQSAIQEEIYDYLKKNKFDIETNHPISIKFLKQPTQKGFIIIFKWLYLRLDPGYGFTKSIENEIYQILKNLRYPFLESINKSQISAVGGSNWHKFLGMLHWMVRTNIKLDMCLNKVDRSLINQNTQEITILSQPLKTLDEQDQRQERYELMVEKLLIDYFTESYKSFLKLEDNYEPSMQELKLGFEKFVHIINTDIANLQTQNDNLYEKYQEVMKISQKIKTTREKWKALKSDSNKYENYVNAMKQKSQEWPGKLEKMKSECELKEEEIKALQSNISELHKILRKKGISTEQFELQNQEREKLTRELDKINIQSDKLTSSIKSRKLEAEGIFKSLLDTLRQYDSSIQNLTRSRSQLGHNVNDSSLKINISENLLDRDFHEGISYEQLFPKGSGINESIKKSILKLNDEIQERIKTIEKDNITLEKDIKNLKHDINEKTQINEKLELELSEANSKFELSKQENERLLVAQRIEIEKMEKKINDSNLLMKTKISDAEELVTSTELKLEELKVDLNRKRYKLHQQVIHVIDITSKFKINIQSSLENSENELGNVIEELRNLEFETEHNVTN
Chain of Ndc80 complex (heterotetramer of Ndc80, Nuf2, Spc24 and Spc25, S. cerevisiae), wild type (S. cerevisiae) (P33895 whole entry, chain 2 of 4, further chain): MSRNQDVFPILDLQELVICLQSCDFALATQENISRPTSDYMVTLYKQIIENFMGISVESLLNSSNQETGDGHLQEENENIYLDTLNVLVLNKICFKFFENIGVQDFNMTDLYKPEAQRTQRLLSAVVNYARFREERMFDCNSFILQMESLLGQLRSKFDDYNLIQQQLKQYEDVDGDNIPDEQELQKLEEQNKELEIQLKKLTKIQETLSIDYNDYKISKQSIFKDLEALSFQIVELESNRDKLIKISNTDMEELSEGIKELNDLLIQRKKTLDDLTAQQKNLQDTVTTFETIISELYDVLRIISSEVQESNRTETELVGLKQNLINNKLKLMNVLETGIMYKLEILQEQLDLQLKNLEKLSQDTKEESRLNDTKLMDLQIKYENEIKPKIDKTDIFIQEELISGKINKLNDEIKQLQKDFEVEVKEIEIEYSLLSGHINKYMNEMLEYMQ
Chain of Ndc80 complex (heterotetramer of Ndc80, Nuf2, Spc24 and Spc25, S. cerevisiae), wild type (S. cerevisiae) (Q04477 whole entry, chain 3 of 4, further chain): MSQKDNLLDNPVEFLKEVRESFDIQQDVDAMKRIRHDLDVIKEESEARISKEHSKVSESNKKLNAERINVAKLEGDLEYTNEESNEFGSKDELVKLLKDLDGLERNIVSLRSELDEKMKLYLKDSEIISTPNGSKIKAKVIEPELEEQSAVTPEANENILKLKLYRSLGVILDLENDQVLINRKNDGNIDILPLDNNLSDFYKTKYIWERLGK
Chain of Ndc80 complex (heterotetramer of Ndc80, Nuf2, Spc24 and Spc25, S. cerevisiae), wild type (S. cerevisiae) (P40014 whole entry, chain 4 of 4, further chain): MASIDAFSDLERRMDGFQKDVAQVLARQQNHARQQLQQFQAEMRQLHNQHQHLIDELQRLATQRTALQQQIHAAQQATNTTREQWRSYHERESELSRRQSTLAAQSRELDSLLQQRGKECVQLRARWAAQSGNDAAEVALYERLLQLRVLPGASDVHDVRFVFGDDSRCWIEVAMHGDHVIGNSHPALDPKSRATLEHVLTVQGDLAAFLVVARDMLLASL
T1 sequence (P40460 whole entry, chain 1 of 4): as the sequence (P40460 whole entry, chain 1 of 4) above
T1 sequence (P33895 whole entry, chain 2 of 4): as the sequence (P33895 whole entry, chain 2 of 4, further chain) above
T1 sequence (Q04477 whole entry, chain 3 of 4): as the sequence (Q04477 whole entry, chain 3 of 4, further chain) above
T1 sequence (P40014 whole entry, chain 4 of 4): as the sequence (P40014 whole entry, chain 4 of 4, further chain) above
T2 sequence (P40460 whole entry, one chain of several): as the sequence (P40460 whole entry, chain 1 of 4) above

- median rupture force of Ndc80c - microtubule attachments in the presence of the Dam1 C-ter mutant Dam1c (optical trap force-rupture assay) [1]: 5.5 pN
Molecule: Dam1 complex with the Dam1 C-terminal mutant (I258/L259/I262 mutated) (from UniProt P53267 1-343; Q12248 1-94; P35734 1-292; P69851 1-72; P36131 1-295; Q03954 1-165)

- other: median rupture force [2]: 8.9 pN
- other: median rupture force [3]: 4.5 pN
Molecule: Ndc80 complex (heterotetramer of Ndc80, Nuf2, Spc24 and Spc25, S. cerevisiae), wild type (from UniProt P40460;P33895;Q04477;P40014) E568R; V590W; L594E; E597R

- median rupture force of Ndc80c - microtubule attachments in the presence of Dam1c (optical trap force-rupture assay) [1]: 10.4 pN
- stoichiometry N [4]: 16
Molecule: Dam1 complex (ten-subunit, S. cerevisiae), wild type (from UniProt P53267 1-343; Q12248 1-94; P35734 1-292; P69851 1-72; P36131 1-295; Q03954 1-165)

- median rupture force [5]: 5.4 pN
Molecule: Ndc80 complex (heterotetramer of Ndc80, Nuf2, Spc24 and Spc25, S. cerevisiae), wild type (from UniProt P40460 1-691; P33895 1-451; Q04477 1-213; P40014 1-221)

Molecule: B1
- binding result [6]: binds

Molecule: B2
- binding result [6]: binds

Molecule: B3
- binding result [7]: binds

Molecule: B4
- binding result [6]: binds

Molecule: B5
- binding result [8]: binds
- binding result [9]: binds

Molecule: B6
- binding result [7]: binds
